Experimental data as given in PMC10713658.

Molecular target: ABI2 (UniProt Q9NYB9)
Experiment: Flag co-IP, ABI2 Western blot
Conditions: reference: wild type, OA-treated; sites S668,T670,S671

## GRAF1 (from UniProt Q9UNA1) AAA (S668A/T670A/S671A), OA-treated
  binding against the reference: weaker
